The record followed here is patent US20190185569A1 (published 2019).

Assay [1] concerns the target T cell surface antigens CTLA4 and PD-1. The assay can be described thus: flow cytometry, PHA-stimulated CD4+ T cells; Ab 100 nM.
The target of assay [2] is T1, CTLA4 antigen obtained by digesting CTLA4-mFc with TEV protease (human, UniProt P16410 36-161).
T1 construct: extracellular domain; Biotin-labelled when immobilised on SA sensors; also called CTLA4 protein; antigen CTLA4
Nature of the assay: BLI (Fortebio), antibody amine-coupled on AR2G sensor, CTLA4 in solution. The procedure:
1.2 Antibody 4G10 was immobilized to AR2GBiosensors by amine coupling method, and then blocked with ethanolamine and equilibrating in PBST, and then bound to CTLA4. CTLA4 was double gradient diluted with PB ST to the concentrations of 268.1, 134.1, 67, 33.5, 16.8, 8.38, 4.19, and 0 nM. The dissociation was also in PBST.

The target of assay [3] is T2, PD-1 antigen obtained by digesting PD-1-mFc with TEV protease (UniProt Q15116 25-170, limits assumed, biotin-labelled (sites not given)).
T2 construct: extracellular domain; also called antigen PD-1
T2 sequence (Q15116 25-170 limits assumed): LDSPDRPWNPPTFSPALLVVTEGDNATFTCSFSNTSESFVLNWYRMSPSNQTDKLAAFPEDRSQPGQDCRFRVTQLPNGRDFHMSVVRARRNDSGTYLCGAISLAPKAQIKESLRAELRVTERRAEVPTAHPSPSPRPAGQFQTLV
The assay can be described thus: BLI (Fortebio), biotin-PD-1 on SA sensor, antibody in solution. The procedure:
The antibodies were diluted with PBST from 200 nM down three fold each time. The dissociation was also in PBST.

The target in assay [4] is T3, PD-1-mFc (mouse, UniProt Q15116 25-170 (human entry), limits assumed).
T3 construct: extracellular domain; a TEV site is implied; not shown: mouse IgG Fc fragment (mFc)
T3 sequence (Q15116 25-170 limits assumed): as above
Nature of the assay: competition ELISA, coat PD-1-mFc 0.2 ug/mL, PDL1-hFc 2 ug/ml.

In assay [5] the target is T3, PD-1-mFc. The assay can be described thus: indirect ELISA, coat PD-1-mFc 0.5 ug/mL. The procedure:
TMB (Neogen, 308177) was added to react for 5 mins. The absorbance was read at the wavelength of 450 nm in a microplate reader.

T1 sequence (P16410 36-161): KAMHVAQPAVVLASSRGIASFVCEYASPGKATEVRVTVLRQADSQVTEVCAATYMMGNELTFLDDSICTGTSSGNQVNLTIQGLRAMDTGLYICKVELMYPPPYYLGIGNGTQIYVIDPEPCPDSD

As to hIgG (antibody), in assay [1], the MFI (fluorescence intensity) amounted to 10.2.

B1: monoclonal antibody 4G10 (antibody, V domains shown)
VH: QVKLQESGPELVKPGASMKISCKASGYSFTGYTMNWVKQSHGKNLEWIGLINPYNNITNYNQKFMGKATFTVDKSSSTAYMELLRLTSEDSGVYFCARLDYRSYWGQGTLVTVSA
VL: QAVVTQESALTTSPGETVTLTCRSSTGAVTTSNFANWVQEKPDHLFTSLIGGTNNRAPGVPARFSGSLIGDKAALTITGAQTEDEAIYFCALWYSNHWVFGGGTKLTVLG
notes: Mouse hybridoma antibody purified on protein A; also called antibody secreted by hybridoma LT002 (CTLA4-4G10)
As to B1, in assay [2], the Kd stood at 0.301 nM, the koff turned out to be 0.000114 s⁻¹ and the kon was 378000 M⁻¹ s⁻¹.

B2: monoclonal antibody 14C12 (antibody, V domains shown)
VH: EVKLVESGGGLVKPGGSLKLSCAASGFAFSSYDMSWVRQTPEKRLEWVATISGGGRYTYYPDSVKGRFTISRDNARNTLYLQMSSLRSEDTALYYCANRYGEAWFAYWGQGTLVTVSA
VL: DIKMTQSPSSMYASLGERVTFTCKASQDINTYLSWFQQKPGKSPKTLIYRANRLVDGVPSRFSGSGSGQDYSLTISSLEYEDMGIYYCLQYDEFPLTFGAGTKLEL
notes: Mouse hybridoma antibody; also called antibody secreted by hybridoma LT003 (PD-1-14C12)
B2: in assay [3], binding was characterised by a dissociation constant (Kd) of 0.0181 nM, the koff turned out to be 6.12e-06 s⁻¹ and the on-rate (kon) came out at 338000 M⁻¹ s⁻¹. The EC50 with PD-1-mFc [4] is 0.853 nM. In addition, in the assay with PD-1-mFc [5], the EC50 stood at 0.175 nM.
